B1: human LIGHT extracellular domain (L83-V240) (ligand, UniProt O43557 83-240, looked up)
chain: LIQERRSHEVNPAAHLTGANSSLTGSGGPLLWETQLGLAFLRGLSYHDGALVVTKAGYYYIYSKVQLGGVGCPLGLASTITHGLYKRTPRYPEELELLVSQQSPCGRATSSSRVWWDSSFLGGVVHLEAGEKVVVRVLDERLVRLRDGTRSYFGAFMV
notes: human LIGHT (TNFSF14), extracellular domain, residues L83-V240; Homotrimer; The His tag is used for detection in the flow cytometry staining; also called hLIGHT; TNFSF14; not shown: His6 (HHHHHHG), N-terminal, kept

One series concerns the target mBTLA protein. Put plainly: flow cytometry, cell–protein method. The conditions noted are these: parent: est. 1.0; read off a plot.
Series [1] has as its target human LIGHT extracellular domain (L83-V240) (human) (UniProt O43557). Put plainly: crystal structure; single-chain hCD160–hHVEM and hLIGHT mixed in a 1:1 molar ratio, 5 mg/ml in 10 mM Hepes pH 7.0, 150 mM NaCl; crystallised in 12% PEG3350, 4% tacsimate; 3.5 Å.
The target in series [2] is full-length mouse BTLA-EGFP, on cells (UniProt Q7TSA3). Kind of series: flow cytometry, cell–cell method.
The target of series [3] is full-length mouse LIGHT, on cells (mLIGHT-IRES-EGFP) (UniProt Q9QYH9). Put plainly: flow cytometry, cell–cell method.
Series [4] concerns the target mouse CD160 (30I-154H) with C-terminal …, biotinylated (UniProt O88875). Kind of series: flow cytometry, cell–protein method.
Series [5] concerns the molecule itself. Kind of series: crystal structure; hHVEM and hLIGHT mixed in a 1:1 molar ratio, 3 mg/ml in 10 mM Hepes pH 7.0, 150 mM NaCl; crystallised in 0.1 M Bis-Tris pH 5.5, 0.2 M MgCl2, 9% PEG3350; 2.30 Å.
The target of series [6] is mHVEM^−LIGHT (H86D-L90A) soluble protein, mHVEM-hIgG1 format (mouse, UniProt Q80WM9 39-206, H86D | L90A). Kind of series: BLI.
The target in series [7] is T1, mHVEM (Q39-Q206)-human IgG1-hexa-His, WT (mouse, UniProt Q80WM9 39-206).
T1 chain: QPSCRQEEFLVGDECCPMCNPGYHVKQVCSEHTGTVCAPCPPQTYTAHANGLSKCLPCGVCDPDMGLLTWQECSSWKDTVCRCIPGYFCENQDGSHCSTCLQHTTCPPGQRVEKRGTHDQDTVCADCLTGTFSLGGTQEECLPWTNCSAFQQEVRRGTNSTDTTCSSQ
Kind of series: BLI.

In series [8] the target is T2, mHVEM (Q39-Q206)-human IgG1-hexa-His, WT (mouse, UniProt Q80WM9 39-206).
T2 construct: mouse HVEM (TNFRSF14) residues Q39-Q206; pcDNA 3.3; also called mHVEM-hIgG1; mHVEM^WT; source: Expi293, transfected, purified (Ni resin); not shown: Fc (human IgG1), C-terminal, kept
T2 sequence (looked up): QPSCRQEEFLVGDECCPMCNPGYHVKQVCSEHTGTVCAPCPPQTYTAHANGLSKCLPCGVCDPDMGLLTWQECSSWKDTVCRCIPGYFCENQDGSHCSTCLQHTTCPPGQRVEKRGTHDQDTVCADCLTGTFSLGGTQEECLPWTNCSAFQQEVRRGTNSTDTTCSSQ
Put plainly: BLI; Octet; mHVEM-hIgG1 immobilised on the sensors, challenged with different concentrations of mLIGHT, mBTLA or mCD160; steady-state fit for mLIGHT, 1:1 Langmuir model for mBTLA and mCD160. The note with it: both partners purified.

Series [9] addresses T3, mHVEM^−LIGHT (H86D-L90A) soluble protein, mHVEM-hIgG1 format (mouse, UniProt Q80WM9 39-206, H86D | L90A).
T3 construct: mouse HVEM (TNFRSF14) residues Q39-Q206 with H86D and L90A; also called mHVEM H86D-L90A double mutein; source: expressed in soluble form (Expi293, purified on Ni resin, as told for mHVEM-hIgG1); not shown: Fc (human IgG1), C-terminal, kept
T3 sequence (looked up): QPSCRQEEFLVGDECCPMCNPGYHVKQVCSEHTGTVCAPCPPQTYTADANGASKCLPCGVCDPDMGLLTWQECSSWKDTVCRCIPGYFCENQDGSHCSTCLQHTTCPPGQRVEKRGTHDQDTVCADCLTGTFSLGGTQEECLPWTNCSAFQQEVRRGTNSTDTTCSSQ
Described as above. The note with it: both partners purified.

Series [10] deals with T4, mHVEM^−BT/160 (G72R-V74A) soluble protein, mHVEM-hIgG1 format (mouse, UniProt Q80WM9 39-206, G72R | V74A).
T4 construct: mouse HVEM (TNFRSF14) residues Q39-Q206 with G72R and V74A; also called mHVEM G72R-V74A double mutein; source: expressed in soluble form (Expi293, purified on Ni resin, as told for mHVEM-hIgG1); not shown: Fc (human IgG1), C-terminal, kept
T4 sequence (looked up): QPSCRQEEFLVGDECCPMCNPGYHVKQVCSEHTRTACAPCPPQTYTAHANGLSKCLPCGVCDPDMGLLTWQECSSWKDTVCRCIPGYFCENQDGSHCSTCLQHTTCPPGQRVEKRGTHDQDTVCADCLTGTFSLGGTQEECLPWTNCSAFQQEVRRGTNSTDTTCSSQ
Described as above. The note with it: both partners purified.

Series [11] deals with mHVEM^−BT/160 (G72R-V74A) soluble protein, mHVEM-hIgG1 format (mouse, UniProt Q80WM9 39-206, G72R | V74A). Kind of series: BLI.
Series [12] has as its target B1. Put plainly: SEC; analytical SEC; equal molar equivalents of hLIGHT and hHVEM monomers mixed. The note with it: both partners purified.

This note sets out measurements from paper PMC8558838 (The Journal of Experimental Medicine, 2021).

Take “full-length WT mouse HVEM-mCherry, on cells (from UniProt Q80WM9) G72D; V74D”: the ratio to parent with mBTLA protein is 0.01.
Same read-out and setting: the value for “full-length WT mouse HVEM-mCherry, on cells (from UniProt Q80WM9) G72D; V74R” was 0.01; that for “full-length WT mouse HVEM-mCherry, on cells (from UniProt Q80WM9) G72R; V74A” was 0.01; that for “full-length WT mouse HVEM-mCherry, on cells (from UniProt Q80WM9) H86A; L90A” was 0.78.
Same read-out and setting: the value for “full-length WT mouse HVEM-mCherry, on cells (from UniProt Q80WM9) G72D; V74A” was 0.02; that for “full-length WT mouse HVEM-mCherry, on cells (from UniProt Q80WM9) G72A; V74D” was 0.01.
With “single-chain hCD160–hHVEM fusion protein”, in [1], the stoichiometry N (hCD160–hHVEM per hLIGHT homotrimer) was determined as 3.
In the case of “full-length WT mouse HVEM-mCherry, on cells (from UniProt Q80WM9) H86R; L90A”, the ratio to parent with mBTLA protein is 0.66.
With “full-length WT mouse HVEM-mCherry, on cells (from UniProt Q80WM9) H86D; L90D”, the ratio to parent with mBTLA protein worked out at 0.82.
For the molecule “full-length WT mouse HVEM-mCherry, on cells (from UniProt Q80WM9) H86D; L90R”, in the series with mBTLA protein, the ratio to parent came out at 0.63.
With “full-length WT mouse HVEM-mCherry, on cells (from UniProt Q80WM9) A76A”, the figures for the ratio to parent in series [2], in series [3] and in series [4] were 1.1, 1.2 and 1, respectively.
Turning to B1, in series [5], the “stoichiometry N” value worked out at 3.

B2: mouse CD160 (30I-154H) with C-terminal …, biotinylated (ligand)
chain: IHVTSSASQKGGRLDLTCTLWHKKDEAEGLILFWCKDNPWNCSPETNLEQLRVKRDPETDGITEKSSQLVFTIEQATPSDSGTYQCCARSQKPEIYIHGHFLSVLVTGNHTEIRQRQRSHPDFSH
modifications: biotin
As to B2, the figures for the Kd in [6] and in [7] were 33.5 µM and 11.6 µM, respectively.

B3: mouse CD160 (30I-154H) with C-terminal [residues removed], biotinylated (ligand, UniProt O88875 30-154, looked up)
chain: IHVTSSASQKGGRLDLTCTLWHKKDEAEGLILFWCKDNPWNCSPETNLEQLRVKRDPETDGITEKSSQLVFTIEQATPSDSGTYQCCARSQKPEIYIHGHFLSVLVTGNHTEIRQRQRSHPDFSH
modifications: biotin
notes: mouse CD160 residues 30I-154H; also called mCD160; mCD160-biotin
On to B3, for which the binding result in [8] is listed as “binds”. Moreover, the “fold reduction of binding against WT mHVEM” value in series [9] is roughly 3 fold.

B4: single chain homotrimeric mLIGHT extracellular domain (G73-V239) connected by two (GGGGS)4 linkers (ligand, mouse)
chain: GGKGSWEKLIQDQRSHQANPAAHLTGANASLIGIGGPLLWETRLGLAFLRGLTYHDGALVTMEPGYYYVYSKVQLSGVGCPQGLANGLPITHGLYKRTSRYPKELELLVSRRSPCGRANSSRVWWDSSFLGGVVHLEAGEEVVVRVPGNRLVRPRDGTRSYFGAFMVGGGGSGGGGSGGGGSGGGGSGGKGSWEKLIQDQRSHQANPAAHLTGANASLIGIGGPLLWETRLGLAFLRGLTYHDGALVTMEPGYYYVYSKVQLSGVGCPQGLANGLPITHGLYKRTSRYPKELELLVSRRSPCGRANSSRVWWDSSFLGGVVHLEAGEEVVVRVPGNRLVRPRDGTRSYFGAFMVGGGGSGGGGSGGGGSGGGGSGGKGSWEKLIQDQRSHQANPAAHLTGANASLIGIGGPLLWETRLGLAFLRGLTYHDGALVTMEPGYYYVYSKVQLSGVGCPQGLANGLPITHGLYKRTSRYPKELELLVSRRSPCGRANSSRVWWDSSFLGGVVHLEAGEEVVVRVPGNRLVRPRDGTRSYFGAFMV
notes: mouse LIGHT (TNFSF14) extracellular domain G73-V239, first copy; linker, printed as (GGGGS)4; mouse LIGHT (TNFSF14) extracellular domain G73-V239, second copy; mouse LIGHT (TNFSF14) extracellular domain G73-V239, third copy; Three copies of the extracellular domain on one chain; source: Expi293, transfected, purified (Ni resin, SEC)
B4: the binding result in series [8] and in [10] was “binds” each time. Besides, the Kd in [6] was determined as 31.7 µM; in series [11], 0.0293 µM; in series [7], 0.0162 µM.

B5: mouse BTLA, soluble protein used as analyte in the Octet experiment (ligand, UniProt Q7TSA3 30-183, looked up)
chain: EKATKRNDEECPVQLTITRNSKQSARTGELFKIQCPVKYCVHRPNVTWCKHNGTICVPLEVSPQLYTSWEENQSVPVFVLHFKPIHLSDNGSYSCSTNFNSQVINSHSVTIHVRERTQNSSEHPLITVSDIPDATNASGPSTMEERPGRTWLLY
notes: mouse BTLA (CD272), soluble form; also called mBTLA
For the molecule B5, the “fold reduction of binding against WT mHVEM” value in series [9] was roughly 5 fold. The values for the Kd in series [6] and in [7] were 5.3 µM and 1.1 µM, respectively.

B6: human HVEM extracellular domain (L39-C162) (domain or fragment, UniProt Q92956 39-162, looked up)
chain: LPSCKEDEYPVGSECCPKCSPGYRVKEACGELTGTVCEPCPPGTYIAHLNGLSKCLQCQMCDPAMGLRASRNCSRTENAVCGCSPGHFCIVQDGDHCAACRAYATSSPGQRVQKGGTESQDTLC
notes: human HVEM (TNFRSF14), extracellular domain, residues L39-C162; positions numbered with initiation codon = 1; Cloned into pMT/BiP/V5-His for His-tag fusion protein production; also called hHVEM; TNFRSF14
For the molecule B6, the “stoichiometry N” value in series [12] is 3 hHVEM per hLIGHT homotrimer.
